Target: T1, GαoA, wild type, full-length, hexahistidine-tagged (UniProt P09471 1-354)
T1 construct: also called wild type GαoA
Test: SPR; Biacore 3000; GST-RGS12 RGS domain captured on anti-GST antibody on a CM5 chip; Gαo injected in the GDP·AlF4- state; equilibrium binding isotherm
Conditions: both partners purified

T1 sequence (P09471 whole entry): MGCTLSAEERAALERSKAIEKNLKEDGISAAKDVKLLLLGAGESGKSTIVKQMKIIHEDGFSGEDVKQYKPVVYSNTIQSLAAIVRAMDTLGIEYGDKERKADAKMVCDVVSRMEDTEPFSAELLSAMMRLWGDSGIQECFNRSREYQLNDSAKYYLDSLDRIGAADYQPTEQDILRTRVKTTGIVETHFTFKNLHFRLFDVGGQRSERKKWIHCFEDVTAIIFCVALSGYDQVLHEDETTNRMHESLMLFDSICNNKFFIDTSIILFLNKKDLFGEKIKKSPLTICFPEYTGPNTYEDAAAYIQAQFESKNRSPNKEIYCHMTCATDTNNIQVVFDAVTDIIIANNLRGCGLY

B1: GST fusion of the RGS12 RGS domain (aa 664–885) (domain or fragment, UniProt O14924 664-885, looked up)
chain: DLESATVSDGELTGADLKDCVSNNSLSSNASLPSVQSCRRLRERRVASWAVSFERLLQDPVGVRYFSDFLRKEFSEENILFWQACEYFNHVPAHDKKELSYRAREIFSKFLCSKATTPVNIDSQAQLADDVLRAPHPDMFKEQQLQIFNLMKFDSYTRFLKSPLYQECILAEVEGRALPDSQQVPSSPASKHSLGSDHSSVSTPKKLSGKSKSGRSLNEELG
notes: also called GST-RGS12
Binder B1 has a Kd of 1270 nM.

— PMC3285607, “A P-loop Mutation in Gα Subunits Prevents Transition to the Active State: Implications for G-protein Signaling in Fungal Pathogenesis” (PLoS Pathogens, 2012)
